Experimental findings from article PMC7144946 are described below.

Assay in all cases: SPR
Series [1] has as its target A. fumigatus CCAAT-binding complex (CBC) consisting of HapB(230–299), HapC(40–137) and HapE(47–164) (Aspergillus fumigatus).
A further series concerns the target T1, Yap1 bZIP (Aspergillus fumigatus, UniProt Q4WMH0 135-234).
T1 sequence: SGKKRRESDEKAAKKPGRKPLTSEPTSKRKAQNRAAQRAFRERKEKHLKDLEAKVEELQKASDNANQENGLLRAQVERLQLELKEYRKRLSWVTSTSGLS

The next series addresses HapX dCBC-BD (Aspergillus fumigatus, UniProt Q4WER3 59-158).

In the case of “A. fumigatus HapX(24–158) (from UniProt Q4WER3 24-158) (domain or fragment)”, in series [1], the apparent KD with cccA-369 promoter DNA (HapX on preformed CBC:DNA) was 0.4 nM, the apparent KD with cox6 promoter DNA (HapX on preformed CBC:DNA) worked out at 3600 nM and the apparent KD with hemH promoter DNA (HapX on preformed CBC:DNA) is 121 nM.

B1: cyp51A-293 (dsDNA)
DNA 1: GCTGAGCCGAATGAAAGTTGCCTAATTACTAAGGTGT
DNA 2: ACACCTTAGTAATTAGGCAACTTTCATTCGGCTCAGC
Broadly, the Kd is a measure of binding affinity in units of concentration. In turn, B1 yielded a Kd with Yap1 bZIP of 13 nM.

B2: cccA-369 (dsDNA)
DNA 1: AAATCCACCAATCAACGCCTCCGTGATTGTCAGCAAT
DNA 2: ATTGCTGACAATCACGGAGGCGTTGATTGGTGGATTT
The molecule B2 gave a Kd with Yap1 bZIP of 50 nM. For the same molecule, in the series with HapX dCBC-BD, the binding signal amounted to 3 fold increase vs HapX.
